{"source": "paper PMC8809517", "about": "“Cofactor-independent RNA editing by a synthetic S-type PPR protein”", "assay_in_all_cases": "high-throughput RNA pulldown from lysate on Ni-NTA beads; HRP: 50 mM Tris pH 8, 150 mM NaCl, 1 mM beta-mercaptoethanol, 50 ug/ml BSA, 3 ug/ml yeast RNA, 0.5% heparin; ITC and FP: Tris pH 8, 200 mM KCl, 5% glycerol; MST: 50 mM Tris pH 8, 200 mM NaCl, 1 mM DTT, BSA, heparin, 0.05% Tween 20", "conditions_in_all_cases": "tags: N-terminal His-eGFP", "key": {"[1]": {"target": "T1, GFP-9S library array, motif 4 ND N98L (synthetic construct, N98L)", "T1 chain": "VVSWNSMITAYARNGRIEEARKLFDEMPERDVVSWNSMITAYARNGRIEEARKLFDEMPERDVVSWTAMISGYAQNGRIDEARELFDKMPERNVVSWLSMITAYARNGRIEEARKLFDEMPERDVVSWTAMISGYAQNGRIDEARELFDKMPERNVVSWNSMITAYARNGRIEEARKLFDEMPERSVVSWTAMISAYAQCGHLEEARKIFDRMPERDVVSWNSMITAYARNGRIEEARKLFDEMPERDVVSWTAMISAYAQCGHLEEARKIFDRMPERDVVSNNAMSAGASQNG"}, "[2]": {"target": "T2, GFP-9S library array, motif 4 ND N98K;D124L (synthetic construct, N98K;D124L)", "T2 chain": "T1 chain with L98K, D124L"}, "[3]": {"target": "T3, GFP-9S library array, motif 4 ND N98D;D124L (synthetic construct, N98D;D124L)", "T3 chain": "T1 chain with L98D, D124L"}, "[4]": {"target": "T4, GFP-9S library array, motif 4 ND N98V;D124Q (synthetic construct, N98V;D124Q)", "T4 chain": "T1 chain with L98V, D124Q"}, "[5]": {"target": "T5, GFP-9S library array, motif 4 ND N98P;D124N (synthetic construct, N98P;D124N)", "T5 chain": "T1 chain with L98P, D124N"}}, "note": "Residue numbers refer to the chain shown, from its start."}
{"binder": "AUUACACGUGA (ssRNA)", "note": "[Cy5-rpoA]", "values": [{"measurement": "Kd", "setting": "[1]; label: 5' Cy5", "value": 214, "unit": "nM"}, {"measurement": "Kd", "setting": "[2]; label: 5' Cy5", "value": 83.5, "unit": "nM"}, {"measurement": "Kd", "setting": "[3]; label: 5' Cy5", "value": 133, "unit": "nM"}, {"measurement": "Kd", "setting": "[4]; label: 5' Cy5", "value": 144, "unit": "nM"}, {"measurement": "Kd", "setting": "[5]; label: 5' Cy5", "value": 172, "unit": "nM"}]}
{"binder": "AUUAGACGUGA (ssRNA)", "note": "[Cy5-rpoA-G]", "values": [{"measurement": "Kd", "setting": "[1]; label: 5' Cy5", "value": 183, "unit": "nM"}, {"measurement": "Kd", "setting": "[2]; label: 5' Cy5", "value": 73.5, "unit": "nM"}, {"measurement": "Kd", "setting": "[3]; label: 5' Cy5", "value": 52.3, "unit": "nM"}, {"measurement": "Kd", "setting": "[4]; label: 5' Cy5", "value": 126, "unit": "nM"}, {"measurement": "Kd", "setting": "[5]; label: 5' Cy5", "value": 164, "unit": "nM"}]}
{"binder": "AUUAAACGUGA (ssRNA)", "note": "[IR-rpoA-A]", "values": [{"measurement": "Kd", "setting": "[1]; label: 5' IRDye 800CW", "value": 452, "unit": "nM"}, {"measurement": "Kd", "setting": "[2]; label: 5' IRDye 800CW", "value": 151, "unit": "nM"}, {"measurement": "Kd", "setting": "[3]; label: 5' IRDye 800CW", "value": 90.5, "unit": "nM"}, {"measurement": "Kd", "setting": "[4]; label: 5' IRDye 800CW", "value": 166, "unit": "nM"}, {"measurement": "Kd", "setting": "[5]; label: 5' IRDye 800CW", "value": 151, "unit": "nM"}]}
{"binder": "AUUAUACGUGA (ssRNA)", "note": "[IR-rpoA-U]", "values": [{"measurement": "Kd", "setting": "[1]; label: 5' IRDye 800CW", "value": 66.3, "unit": "nM"}, {"measurement": "Kd", "setting": "[2]; label: 5' IRDye 800CW", "value": 174, "unit": "nM"}, {"measurement": "Kd", "setting": "[3]; label: 5' IRDye 800CW", "value": 408, "unit": "nM"}, {"measurement": "Kd", "setting": "[4]; label: 5' IRDye 800CW", "value": 167, "unit": "nM"}, {"measurement": "Kd", "setting": "[5]; label: 5' IRDye 800CW", "value": 136, "unit": "nM"}]}
